Laboratory results from publication PMC8405998, “Catalytic mechanism of ancestral L-lysine oxidase assigned by sequence data mining” (The Journal of Biological Chemistry, 2021).

Columns and labels:
AncLLysO = molecular target: T1, AncLLysO (synthetic construct, UniProt Z9DQU9YC40); experiment: X-ray crystal structure, […]-2.[…] Å; format: binding; conditions: substrate-free form; crystals at pH 7.5
T1 sequence (Z9DQU9YC40 1-589): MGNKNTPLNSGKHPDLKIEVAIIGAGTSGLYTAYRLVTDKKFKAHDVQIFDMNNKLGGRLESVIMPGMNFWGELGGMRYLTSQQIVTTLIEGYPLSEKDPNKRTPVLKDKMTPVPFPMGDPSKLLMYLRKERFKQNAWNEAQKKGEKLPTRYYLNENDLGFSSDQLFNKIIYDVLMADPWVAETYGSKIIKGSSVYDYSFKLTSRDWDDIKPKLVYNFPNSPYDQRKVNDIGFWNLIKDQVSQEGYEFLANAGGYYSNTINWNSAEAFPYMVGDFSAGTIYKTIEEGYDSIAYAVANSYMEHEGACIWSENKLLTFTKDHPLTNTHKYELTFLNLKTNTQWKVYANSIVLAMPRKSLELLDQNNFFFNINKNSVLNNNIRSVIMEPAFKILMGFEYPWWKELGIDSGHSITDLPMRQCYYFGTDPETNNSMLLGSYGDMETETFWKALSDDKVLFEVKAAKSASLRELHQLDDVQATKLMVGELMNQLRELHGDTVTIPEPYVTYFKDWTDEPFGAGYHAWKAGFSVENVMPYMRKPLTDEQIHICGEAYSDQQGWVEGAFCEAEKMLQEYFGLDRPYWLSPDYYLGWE

N=C(N)NCCC[C@H](N)C(=O)O = experiment: purified protein; conditions: 100 mM Bis-Tris-HCl pH 7.0, O2 as co-substrate
purified protein [1] = substrate: NCCC[C@H](N)C(=O)O; experiment: purified protein; conditions: 100 mM Bis-Tris-HCl pH 7.0, O2 as co-substrate
purified protein [2] = substrate: NCCCC[C@H](N)C(=O)O; experiment: purified protein; conditions: 100 mM Bis-Tris-HCl pH 7.0, O2 as co-substrate
purified protein [3] = substrate: N=C(N)NCCC[C@H](N)C(=O)O; experiment: purified protein; conditions: 100 mM Bis-Tris-HCl pH 7.0, O2 as co-substrate; remark: listed apart in the source

Molecule: Cc1cc2nc3c(=O)[nH]c(=O)nc-3n(C[C@H](O)[C@H](O)[C@H](O)COP(=O)(O)OP(=O)(O)OC[C@H]3O[C@@H](n4cnc5c(N)ncnc54)[C@H](O)[C@@H]3O)c2cc1C [FAD]
- X-ray crystal structure, 2.2-2.4 Å (AncLLysO): the Rossmann-core fold, which recognizes FAD

Molecule: AncLLysO (synthetic construct)
- Km (N=C(N)NCCC[C@H](N)C(=O)O): 6900 ± 1100 µM
- kcat (N=C(N)NCCC[C@H](N)C(=O)O): 11.4 ± 1 s⁻¹
- kcat/Km (N=C(N)NCCC[C@H](N)C(=O)O): 1700 M⁻¹ s⁻¹

B1: CaLLysO (Chryseobacterium angstadtii) (protein)
chain: MNKNTPLNTGKQPDLKTEVAIIGAGTSGLYTAYRLVTDKKYTASEVQIFDMNDKLGGRLESVIMPGMNFWGELGGMRYLTSQEIVTTLIEGYPLSETDPAKRIPVLKDKMTPVPFPMGDPSKLLMYLRKDRCKQDAWTVAQGEGEKLPTRYYLNDDDFGFSSDQLFNKVIYDVLMADAWVAETYGKKIIKGSSIYDYSFELTSRDWDDIKPKLVYNFPNSPYDQRKVNDLGFWNLLKDQVSQEGYEFLANAGGYYSNTINWNAAEAFPYMVGDFSAGTIYKTIEEGYDSIAYAVANSYMEHEGACIWSKNKLLTFTKDHDLKSTYKYRLTFLNLETNTQWNVYANTLVLAMPRKSLELLDQDNFFFNINENSVLNENIRSVIMEPAFKILMGFPYPWWKELGIDSGHSITDLPMRQCYYFGTDPQTNNSMLLGSYGDMETETFWKALSDDKILFEVKAAKSASLKELHELDDVQATRMMVDELMNQLRELHGEEITIPEPYVTYFKDWTDEPFGAGYHAWKAGFSVENVMPYMRKPVADEQIHIVGEAYSDQQGWVEGAFCEAEKMLQEYFGLNRPIWLNPDYYLGW
- Km (purified protein [1]): 4400 ± 400 µM
- kcat (purified protein [1]): 3.6 s⁻¹
- kcat/Km (purified protein [1]): 810 M⁻¹ s⁻¹
- Km (purified protein [2]): 27 ± 3 µM
- Km (purified protein [3]): 340 ± 30 µM
- kcat (purified protein [3]): 11.4 ± 0.1 s⁻¹
- kcat/Km (purified protein [3]): 33200 M⁻¹ s⁻¹
